# Tests used:
# Assay in all cases: Kinase Profiling Assay
# Conditions in all cases: 100 μM
# SGK (h) = assay type: biochemical, human
# Description: (§1) Every kinase activity measurement was conducted in duplicate.
# (§2) Specifically, in these assays, a positively charged substrate is phosphorylated with a radiolabeled phosphate group from an ATP if the kinase is not inhibited by an inhibitor peptide. The positively charged substrate then is attracted to a negatively charged filter membrane, quantified with a scintillation counter, and compared to a 100% activity control.
# (§3) In addition to determining the IC50 of the compound, the specificity of MK2 inhibitory peptides was assessed by examining activities of all 266 human kinases available for testing in the Millipore kinase profiling service (Table 1).
# CaMKI (h) = assay type: biochemical, human
# Description: as §1, §2, §3
# MLCK (h) = assay type: biochemical, human
# Description: as §1, §2, §3
# KDR (h) = KDR (h) (Homo sapiens, UniProt P35968); assay type: biochemical
# KDR (h), sequence (P35968 20-1356): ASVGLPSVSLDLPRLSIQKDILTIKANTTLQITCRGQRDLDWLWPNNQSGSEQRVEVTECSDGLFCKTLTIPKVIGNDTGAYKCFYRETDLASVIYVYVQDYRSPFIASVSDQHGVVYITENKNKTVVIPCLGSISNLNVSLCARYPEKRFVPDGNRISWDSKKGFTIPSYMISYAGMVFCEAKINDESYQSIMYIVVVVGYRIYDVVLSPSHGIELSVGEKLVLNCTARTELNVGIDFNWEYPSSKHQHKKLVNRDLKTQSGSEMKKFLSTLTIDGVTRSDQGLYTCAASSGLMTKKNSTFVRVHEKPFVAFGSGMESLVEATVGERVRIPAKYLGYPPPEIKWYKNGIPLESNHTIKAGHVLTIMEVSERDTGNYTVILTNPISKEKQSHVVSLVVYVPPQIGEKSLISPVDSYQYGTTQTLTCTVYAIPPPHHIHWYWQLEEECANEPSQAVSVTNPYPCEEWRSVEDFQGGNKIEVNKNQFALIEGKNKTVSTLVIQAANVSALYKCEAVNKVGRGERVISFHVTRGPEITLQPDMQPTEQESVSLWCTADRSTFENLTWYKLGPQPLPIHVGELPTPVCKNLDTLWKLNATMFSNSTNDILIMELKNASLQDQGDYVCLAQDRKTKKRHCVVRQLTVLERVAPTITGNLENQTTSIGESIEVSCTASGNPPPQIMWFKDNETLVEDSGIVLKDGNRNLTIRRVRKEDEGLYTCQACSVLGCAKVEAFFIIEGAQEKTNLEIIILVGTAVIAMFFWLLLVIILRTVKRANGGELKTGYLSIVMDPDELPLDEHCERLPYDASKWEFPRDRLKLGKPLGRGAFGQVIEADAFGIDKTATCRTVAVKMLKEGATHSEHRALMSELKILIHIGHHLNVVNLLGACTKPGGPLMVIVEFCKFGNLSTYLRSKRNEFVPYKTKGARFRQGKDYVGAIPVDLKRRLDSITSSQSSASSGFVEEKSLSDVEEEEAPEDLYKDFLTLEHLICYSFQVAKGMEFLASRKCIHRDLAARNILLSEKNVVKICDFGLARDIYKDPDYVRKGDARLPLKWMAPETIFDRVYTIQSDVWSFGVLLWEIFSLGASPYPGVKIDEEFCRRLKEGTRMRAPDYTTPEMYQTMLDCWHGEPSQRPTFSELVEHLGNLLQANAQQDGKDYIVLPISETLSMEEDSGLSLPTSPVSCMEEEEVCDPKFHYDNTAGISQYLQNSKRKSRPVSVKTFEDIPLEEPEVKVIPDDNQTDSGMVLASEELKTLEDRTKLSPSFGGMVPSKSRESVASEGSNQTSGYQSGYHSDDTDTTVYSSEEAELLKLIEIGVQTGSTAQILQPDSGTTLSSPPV
# Description: as §1, §2, §3
# Tec (h) activated = target: T1, Tec (h) activated (Homo sapiens, UniProt P42680); assay type: biochemical
# T1 sequence (P42680 1-631): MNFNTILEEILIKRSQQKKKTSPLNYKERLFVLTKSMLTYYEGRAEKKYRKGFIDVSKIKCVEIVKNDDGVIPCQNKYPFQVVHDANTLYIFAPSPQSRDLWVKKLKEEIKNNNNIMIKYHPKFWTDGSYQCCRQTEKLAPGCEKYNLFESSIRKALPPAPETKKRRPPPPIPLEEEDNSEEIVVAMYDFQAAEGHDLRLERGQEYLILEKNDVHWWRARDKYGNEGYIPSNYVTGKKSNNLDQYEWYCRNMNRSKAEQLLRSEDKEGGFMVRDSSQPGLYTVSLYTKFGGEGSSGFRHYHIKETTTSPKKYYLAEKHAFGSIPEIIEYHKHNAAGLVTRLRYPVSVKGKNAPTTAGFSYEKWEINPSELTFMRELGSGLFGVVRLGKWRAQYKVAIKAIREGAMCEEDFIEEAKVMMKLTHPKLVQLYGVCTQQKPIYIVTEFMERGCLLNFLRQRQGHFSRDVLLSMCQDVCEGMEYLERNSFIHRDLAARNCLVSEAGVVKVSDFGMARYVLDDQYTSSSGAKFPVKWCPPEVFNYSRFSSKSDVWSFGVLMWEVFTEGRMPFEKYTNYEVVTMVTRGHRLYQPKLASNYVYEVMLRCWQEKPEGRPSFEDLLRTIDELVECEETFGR
# Description: as §1, §2, §3
# ULK3 (h) = target: T2, ULK3 (h) (Homo sapiens, UniProt Q6PHR2); assay type: biochemical
# T2 sequence (Q6PHR2 1-472): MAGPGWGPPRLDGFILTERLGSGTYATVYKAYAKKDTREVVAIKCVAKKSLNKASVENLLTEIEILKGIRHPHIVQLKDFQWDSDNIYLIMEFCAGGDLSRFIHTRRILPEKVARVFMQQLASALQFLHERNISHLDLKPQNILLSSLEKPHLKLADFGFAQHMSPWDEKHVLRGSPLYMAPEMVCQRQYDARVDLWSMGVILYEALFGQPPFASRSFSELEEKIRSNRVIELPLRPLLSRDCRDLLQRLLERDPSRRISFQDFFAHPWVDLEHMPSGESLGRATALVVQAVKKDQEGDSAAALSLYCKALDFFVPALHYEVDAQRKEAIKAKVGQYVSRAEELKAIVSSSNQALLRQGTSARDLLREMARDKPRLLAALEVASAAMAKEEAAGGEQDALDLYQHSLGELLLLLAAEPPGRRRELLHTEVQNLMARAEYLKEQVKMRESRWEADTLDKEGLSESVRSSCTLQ
# Description: as §1, §2, §3
# NEK11 (h) = target: T3, NEK11 (h) (Homo sapiens, UniProt Q8NG66); assay type: biochemical
# T3 construct: purchased Millipore
# T3 sequence (Q8NG66 1-645): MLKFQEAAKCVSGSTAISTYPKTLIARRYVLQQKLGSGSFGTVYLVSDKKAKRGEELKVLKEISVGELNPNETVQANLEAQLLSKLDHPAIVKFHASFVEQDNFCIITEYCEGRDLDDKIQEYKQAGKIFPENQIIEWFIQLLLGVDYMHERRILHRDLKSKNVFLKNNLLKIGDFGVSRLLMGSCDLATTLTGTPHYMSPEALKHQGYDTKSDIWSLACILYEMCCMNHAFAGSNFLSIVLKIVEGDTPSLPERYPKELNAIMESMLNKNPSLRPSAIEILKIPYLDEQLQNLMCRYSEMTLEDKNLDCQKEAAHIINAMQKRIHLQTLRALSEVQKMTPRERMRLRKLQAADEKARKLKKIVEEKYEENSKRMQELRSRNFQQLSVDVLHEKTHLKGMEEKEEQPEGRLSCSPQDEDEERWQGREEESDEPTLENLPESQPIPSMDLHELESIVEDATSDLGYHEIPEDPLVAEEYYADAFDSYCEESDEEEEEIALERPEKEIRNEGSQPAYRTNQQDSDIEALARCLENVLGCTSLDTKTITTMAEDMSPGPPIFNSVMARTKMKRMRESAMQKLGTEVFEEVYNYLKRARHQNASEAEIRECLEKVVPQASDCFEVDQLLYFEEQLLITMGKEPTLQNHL
# Description: as §1, §2, §3
# JAK2 (h) = target: T4, JAK2 (h) (Homo sapiens, UniProt O60674); assay type: biochemical
# T4 construct: purchased Millipore
# T4 sequence (O60674 whole entry): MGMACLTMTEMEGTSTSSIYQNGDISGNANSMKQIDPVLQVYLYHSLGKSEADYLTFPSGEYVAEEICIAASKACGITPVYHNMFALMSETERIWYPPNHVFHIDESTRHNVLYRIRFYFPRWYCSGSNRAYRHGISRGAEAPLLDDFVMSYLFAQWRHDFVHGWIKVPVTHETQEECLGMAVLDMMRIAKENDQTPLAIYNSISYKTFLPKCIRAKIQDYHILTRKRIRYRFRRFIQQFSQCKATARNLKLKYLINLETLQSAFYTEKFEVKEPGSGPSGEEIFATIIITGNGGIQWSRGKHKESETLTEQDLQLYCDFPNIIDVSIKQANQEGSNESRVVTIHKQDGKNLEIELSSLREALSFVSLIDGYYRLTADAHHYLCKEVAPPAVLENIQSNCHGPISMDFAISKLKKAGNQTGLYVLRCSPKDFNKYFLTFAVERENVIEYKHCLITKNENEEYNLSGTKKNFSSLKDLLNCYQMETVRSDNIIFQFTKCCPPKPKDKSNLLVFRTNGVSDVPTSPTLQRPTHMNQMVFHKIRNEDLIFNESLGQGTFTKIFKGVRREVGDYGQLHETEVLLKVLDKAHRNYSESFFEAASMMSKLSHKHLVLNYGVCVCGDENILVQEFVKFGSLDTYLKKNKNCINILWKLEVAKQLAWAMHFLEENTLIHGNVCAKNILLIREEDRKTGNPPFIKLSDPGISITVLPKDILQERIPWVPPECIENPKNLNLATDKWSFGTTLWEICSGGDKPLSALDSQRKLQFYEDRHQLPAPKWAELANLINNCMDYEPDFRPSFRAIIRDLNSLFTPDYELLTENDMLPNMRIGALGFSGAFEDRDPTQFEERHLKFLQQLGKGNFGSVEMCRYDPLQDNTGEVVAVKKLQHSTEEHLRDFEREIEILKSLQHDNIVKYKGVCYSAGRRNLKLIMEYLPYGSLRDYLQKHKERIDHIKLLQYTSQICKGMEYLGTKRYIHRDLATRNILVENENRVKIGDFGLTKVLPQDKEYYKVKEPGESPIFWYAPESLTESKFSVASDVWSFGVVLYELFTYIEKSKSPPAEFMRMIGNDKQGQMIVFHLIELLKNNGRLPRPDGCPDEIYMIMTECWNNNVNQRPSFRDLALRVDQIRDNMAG
# Description: as §1, §2, §3
# EGFR(T790M, L858R) (h) = target: T5, EGFR(T790M, L858R) (h) (Homo sapiens, UniProt P00533, L858R/T790M); assay type: biochemical
# T5 construct: purchased Millipore
# Description: as §1, §2, §3
# CDK1/cyclinB (h) = target: T6, CDK1/cyclinB (h) (Homo sapiens, UniProt P06493); assay type: biochemical
# T6 construct: purchased Millipore
# T6 sequence (P06493 whole entry): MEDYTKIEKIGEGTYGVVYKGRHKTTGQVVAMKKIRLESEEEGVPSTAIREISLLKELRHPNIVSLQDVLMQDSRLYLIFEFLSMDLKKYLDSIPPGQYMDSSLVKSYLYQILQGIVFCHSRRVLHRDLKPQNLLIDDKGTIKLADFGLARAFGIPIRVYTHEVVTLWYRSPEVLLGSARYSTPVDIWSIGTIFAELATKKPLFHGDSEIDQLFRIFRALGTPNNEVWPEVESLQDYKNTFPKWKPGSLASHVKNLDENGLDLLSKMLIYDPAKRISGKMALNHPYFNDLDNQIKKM
# T6 sequence (P14635 whole entry partner): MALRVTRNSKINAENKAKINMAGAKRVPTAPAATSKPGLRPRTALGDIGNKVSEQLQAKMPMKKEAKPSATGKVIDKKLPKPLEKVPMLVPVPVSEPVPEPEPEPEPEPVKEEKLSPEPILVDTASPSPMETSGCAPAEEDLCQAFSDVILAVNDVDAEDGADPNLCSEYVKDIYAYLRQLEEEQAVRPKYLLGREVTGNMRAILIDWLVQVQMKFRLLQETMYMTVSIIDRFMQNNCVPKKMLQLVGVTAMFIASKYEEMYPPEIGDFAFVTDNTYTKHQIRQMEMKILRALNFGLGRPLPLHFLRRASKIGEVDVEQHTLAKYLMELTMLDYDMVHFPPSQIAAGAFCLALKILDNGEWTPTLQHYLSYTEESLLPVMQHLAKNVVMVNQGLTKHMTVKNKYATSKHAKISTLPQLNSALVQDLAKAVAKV
# Description: as §1, §2, §3
# Pim-3 (h) = target: T7, Pim-3 (h) (Homo sapiens, UniProt Q86V86); assay type: biochemical
# T7 construct: purchased Millipore
# Description: as §1, §2, §3
# PASK (h) = target: T8, PASK (h) (Homo sapiens, UniProt Q96RG2); assay type: biochemical
# T8 construct: purchased Millipore
# T8 sequence (Q96RG2 whole entry): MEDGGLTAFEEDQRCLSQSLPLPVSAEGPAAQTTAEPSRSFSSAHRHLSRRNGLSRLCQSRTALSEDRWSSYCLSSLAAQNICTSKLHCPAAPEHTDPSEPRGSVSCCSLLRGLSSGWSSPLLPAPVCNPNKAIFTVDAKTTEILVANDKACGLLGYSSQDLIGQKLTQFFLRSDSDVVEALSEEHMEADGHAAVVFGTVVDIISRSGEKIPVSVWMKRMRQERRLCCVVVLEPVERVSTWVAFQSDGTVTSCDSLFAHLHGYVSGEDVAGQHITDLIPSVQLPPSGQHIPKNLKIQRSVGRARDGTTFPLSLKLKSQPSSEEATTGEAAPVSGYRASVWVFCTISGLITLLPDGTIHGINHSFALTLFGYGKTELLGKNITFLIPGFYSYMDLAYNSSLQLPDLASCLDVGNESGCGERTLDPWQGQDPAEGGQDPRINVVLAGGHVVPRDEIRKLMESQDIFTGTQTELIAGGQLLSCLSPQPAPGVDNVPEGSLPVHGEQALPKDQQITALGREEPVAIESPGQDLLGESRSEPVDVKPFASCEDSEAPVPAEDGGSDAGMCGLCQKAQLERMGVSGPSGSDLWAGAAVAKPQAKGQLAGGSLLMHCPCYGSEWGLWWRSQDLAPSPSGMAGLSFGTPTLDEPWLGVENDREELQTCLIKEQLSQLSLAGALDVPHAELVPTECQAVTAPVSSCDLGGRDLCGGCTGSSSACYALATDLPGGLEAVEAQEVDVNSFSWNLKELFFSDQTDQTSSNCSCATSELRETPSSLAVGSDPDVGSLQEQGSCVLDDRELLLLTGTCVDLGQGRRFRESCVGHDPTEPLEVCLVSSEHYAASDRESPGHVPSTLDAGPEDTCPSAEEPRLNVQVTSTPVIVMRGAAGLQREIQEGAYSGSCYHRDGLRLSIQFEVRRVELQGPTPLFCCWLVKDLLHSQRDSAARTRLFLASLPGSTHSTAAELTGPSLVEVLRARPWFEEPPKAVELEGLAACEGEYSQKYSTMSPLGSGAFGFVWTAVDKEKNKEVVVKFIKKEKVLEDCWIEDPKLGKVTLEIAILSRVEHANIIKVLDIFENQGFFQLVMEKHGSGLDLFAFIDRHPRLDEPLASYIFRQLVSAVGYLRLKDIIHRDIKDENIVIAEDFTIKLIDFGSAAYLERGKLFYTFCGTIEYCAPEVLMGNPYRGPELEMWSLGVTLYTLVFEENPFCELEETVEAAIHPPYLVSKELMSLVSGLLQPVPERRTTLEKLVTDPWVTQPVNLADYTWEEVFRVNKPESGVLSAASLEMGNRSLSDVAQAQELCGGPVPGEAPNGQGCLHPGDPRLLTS
# Description: as §1, §2, §3
Sequence,% activity (SGK (h)) [%],% activity (CaMKI (h)) [%],% activity (MLCK (h)) [%],% activity (KDR (h)) [%],% activity (Tec (h) activated) [%],% activity (ULK3 (h)) [%],% activity (NEK11 (h)) [%],% activity (JAK2 (h)) [%],"% activity (EGFR(T790M, L858R) (h)) [%]",% activity (CDK1/cyclinB (h)) [%],% activity (Pim-3 (h)) [%],% activity (PASK (h)) [%]
FAKLAARLYRKALARQLGVAA [MMI-0300],48,1,2,101,56,167,53,133,85,73,80,29
HRRIKAWLKKIKALARQLGVAA (Mammalian) [MMI-0500],2,−1,0,15,33,177,2,49,53,57,37,9
KAFAKLAARLYRKALARQLGVAA [MMI-0400],54,0,1,94,29,147,33,–,78,74,80,28
YARAAARQARAKALNRQLGVA (Mammalian) [MMI-0200],115,21,103,110,77,164,95,131,108,–,94,60

# Source: patent publication US10500249B2, “Compositions and methods for preventing or treating diseases, conditions, or processes characterized by aberrant fibroblast proliferation and extracellular matrix deposition” (MOERAE MATRIX, INC., priority 2014, dated 2019)
